The values below are quoted from earlier work in article PMC5671728.

The target in data set [1] is Insulin receptor isoform A (Homo sapiens) (UniProt P06213).
Data set [2] has as its target Insulin receptor isoform B (Homo sapiens) (UniProt P06213).

Values joined by “and” are separate entries in the source; they are usually repeats but may differ in a detail not shown here. Equal entries are not always repeated.

Sequence of Insulin (P01308 90-110): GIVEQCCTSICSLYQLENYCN

With Insulin (from UniProt P01308), the Kd in data set [1] was 0.91 nM and 2.1 nM; in data set [2], 1.8 nM and 1.56 nM.

Broadly, the Kd is the constant that tells how readily two partners part at equilibrium.
